According to publication doi:10.1101/2022.05.03.490446 (bioRxiv, 2022):
Where two headings read alike, the source gives them in different places. One block for each molecule: values may come before it.

Legend:
GroEL [1] = molecular target: T1, GroEL (E. coli, UniProt P0A6F5 1-548); assay: SEC
GroEL [2] = molecular target: T1, GroEL; assay: atomic force microscopy
GroEL [3] = molecular target: T1, GroEL
GroEL [4] = molecular target: T1, GroEL; assay: fluorescence polarisation + other fluorescence titration
GroEL [5] = molecular target: T1, GroEL; assay: other fluorescence titration

T1 sequence (P0A6F5 whole entry): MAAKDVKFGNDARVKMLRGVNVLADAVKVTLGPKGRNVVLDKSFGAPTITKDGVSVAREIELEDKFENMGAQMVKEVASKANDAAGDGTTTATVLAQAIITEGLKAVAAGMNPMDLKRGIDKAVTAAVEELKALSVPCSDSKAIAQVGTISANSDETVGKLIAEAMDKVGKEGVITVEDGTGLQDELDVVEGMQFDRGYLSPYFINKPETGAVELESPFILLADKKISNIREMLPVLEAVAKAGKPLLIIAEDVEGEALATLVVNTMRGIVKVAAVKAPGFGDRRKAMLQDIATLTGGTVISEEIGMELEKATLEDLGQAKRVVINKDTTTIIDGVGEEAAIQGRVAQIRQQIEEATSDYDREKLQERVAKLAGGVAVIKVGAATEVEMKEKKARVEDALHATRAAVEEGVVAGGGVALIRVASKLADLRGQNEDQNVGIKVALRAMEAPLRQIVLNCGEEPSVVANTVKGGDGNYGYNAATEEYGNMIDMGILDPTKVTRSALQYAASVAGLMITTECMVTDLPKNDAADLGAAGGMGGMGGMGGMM

stoichiometry N (GroEL:CnoX molar ratio) (GroEL [1]): 14 | specific binding force (GroEL [2]): 175 pN
Molecule: CnoX (from UniProt P77395 1-284) (natural protein)

Kd (GroEL [3]): 350 nM | Kd (GroEL [4]): 310 nM
Molecule: fluorescein-labeled CnoX (from UniProt P77395 1-284) (natural protein)

Ki (GroEL [5]): 47 nM
B1: GroES (natural protein)
chain: MNIRPLHDRVIVKRKEVETKSAGGIVLTGSAAAKSTRGEVLAVGNGRILENGEVKPLDVKVGDIVIFNDGYGVKSEKIDNEEVLIMSESDILAIVEA
